Assay results taken from article doi:10.1101/2025.07.10.664194 (bioRxiv, 2025).

Target: T1, BcGabija GajA (Bacillus cereus, UniProt J8H9C1 1-578)
T1 construct: also called Bacillus cereus GajA nuclease subunit
T1 sequence: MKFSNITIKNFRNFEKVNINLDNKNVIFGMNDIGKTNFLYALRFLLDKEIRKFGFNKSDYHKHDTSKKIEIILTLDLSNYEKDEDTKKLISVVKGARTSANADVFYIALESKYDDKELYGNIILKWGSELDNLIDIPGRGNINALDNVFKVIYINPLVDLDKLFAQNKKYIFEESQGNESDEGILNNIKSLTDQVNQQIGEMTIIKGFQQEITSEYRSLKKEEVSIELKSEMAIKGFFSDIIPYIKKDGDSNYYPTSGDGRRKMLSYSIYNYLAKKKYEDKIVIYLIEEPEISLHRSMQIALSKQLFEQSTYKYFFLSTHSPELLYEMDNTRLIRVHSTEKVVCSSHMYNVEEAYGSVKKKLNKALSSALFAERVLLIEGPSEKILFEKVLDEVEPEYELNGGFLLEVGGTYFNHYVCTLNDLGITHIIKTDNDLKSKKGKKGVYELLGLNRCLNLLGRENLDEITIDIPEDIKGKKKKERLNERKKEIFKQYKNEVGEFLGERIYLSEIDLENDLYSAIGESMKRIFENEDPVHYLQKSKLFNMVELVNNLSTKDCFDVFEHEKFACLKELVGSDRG
Experiment: mass photometry
Conditions: both partners purified

B1: BcGabija GajB (natural protein)
chain: MSREQIIKDGGNILVTAGAGSGKTTILVSKIEADLKENKTHYSIAAVTFTNKAAKEIEGRLGYSSRGNFIGTNDGFVESEIIRPFIKDAFGNDYPDNFTAEYFDNQFASYDKGLQVLKYQNILGTYSNPKKNFKFQLALDILKKSLVARQYIFSKYFKIFIDEYQDSDKDMHNLFMYLKDQLKIKLFIVGDPKQSIYIWRGAEPENFNGLIENSTDFNKYHLTSNFRCCQDIQNYSNLFNEETRSLIKEKNEVQNVISIADDMPISDILLKLTEEKQVLNIEAELVILVRRRNQAIEIMKELNEEGFNFIFIPQTPLDRATPNATLLKEVIKYVKNDRYSIYDLAAEIVGNLSSREIKEIQKIINELLVPNINQVLINQVLINLFAKLEITLDTREITAFTEVMMTNEFDIAFDTNEYLHKIFTVHSAKGLEFNQVIITASDYNVHYNRDTNEHYVATTRAKDKLIVIMDNKKYSDYIETLMKELKIKNIIKSI
notes: also called NTPase subunit of BcGabija
stoichiometry N: 1 GajA:GajB (4:4)
